# Data as given in patent publication US20220204643A1 (published 2022).
# T1: UTP6 small subunit processome component (human, UniProt Q9NYH9 1-597)
# T1 construct: on protein array
# T1 sequence: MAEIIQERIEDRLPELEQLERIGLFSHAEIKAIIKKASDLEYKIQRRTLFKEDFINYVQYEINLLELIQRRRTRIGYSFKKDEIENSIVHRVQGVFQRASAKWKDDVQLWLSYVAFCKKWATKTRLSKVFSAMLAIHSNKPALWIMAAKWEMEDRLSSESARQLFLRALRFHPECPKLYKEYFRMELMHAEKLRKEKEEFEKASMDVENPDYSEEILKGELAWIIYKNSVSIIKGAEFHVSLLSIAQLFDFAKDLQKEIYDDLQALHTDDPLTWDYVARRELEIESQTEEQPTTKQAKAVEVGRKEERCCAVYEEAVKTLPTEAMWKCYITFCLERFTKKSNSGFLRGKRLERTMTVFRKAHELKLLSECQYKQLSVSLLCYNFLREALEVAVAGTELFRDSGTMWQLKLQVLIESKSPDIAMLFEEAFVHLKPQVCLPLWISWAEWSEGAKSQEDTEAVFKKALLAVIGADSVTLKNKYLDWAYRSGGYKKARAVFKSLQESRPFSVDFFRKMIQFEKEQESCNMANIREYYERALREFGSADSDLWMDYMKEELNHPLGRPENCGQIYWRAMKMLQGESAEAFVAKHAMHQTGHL
# T2: phosducin like (human, UniProt Q13371 2-301)
# T2 construct: on protein array; also called PDCL
# T2 sequence: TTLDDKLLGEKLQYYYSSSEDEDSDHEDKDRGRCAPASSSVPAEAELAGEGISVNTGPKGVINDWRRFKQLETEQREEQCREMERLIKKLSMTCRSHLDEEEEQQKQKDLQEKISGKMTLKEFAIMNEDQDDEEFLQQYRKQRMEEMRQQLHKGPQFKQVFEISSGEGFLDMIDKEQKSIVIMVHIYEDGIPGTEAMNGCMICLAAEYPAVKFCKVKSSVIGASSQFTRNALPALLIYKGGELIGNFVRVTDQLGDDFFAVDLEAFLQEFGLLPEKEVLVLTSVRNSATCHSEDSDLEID
# T3: glyoxylate and hydroxypyruvate reductase (human, UniProt Q9UBQ7 1-328)
# T3 construct: on protein array; also called GRHPR
# T3 sequence: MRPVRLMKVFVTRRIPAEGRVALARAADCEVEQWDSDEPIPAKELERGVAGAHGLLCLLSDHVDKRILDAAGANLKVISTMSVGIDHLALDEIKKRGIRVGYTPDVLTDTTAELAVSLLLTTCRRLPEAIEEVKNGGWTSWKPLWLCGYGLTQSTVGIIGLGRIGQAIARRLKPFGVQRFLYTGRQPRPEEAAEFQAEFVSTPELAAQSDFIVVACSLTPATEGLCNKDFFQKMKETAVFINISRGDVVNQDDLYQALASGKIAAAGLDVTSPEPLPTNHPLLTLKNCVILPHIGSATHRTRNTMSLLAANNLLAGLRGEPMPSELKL
# T4: phosphoglucomutase 2 like 1 (human, UniProt Q6PCE3 1-622 at identity 1.00))
# T4 construct: on protein array; also called PGM2L1
# T4 sequence: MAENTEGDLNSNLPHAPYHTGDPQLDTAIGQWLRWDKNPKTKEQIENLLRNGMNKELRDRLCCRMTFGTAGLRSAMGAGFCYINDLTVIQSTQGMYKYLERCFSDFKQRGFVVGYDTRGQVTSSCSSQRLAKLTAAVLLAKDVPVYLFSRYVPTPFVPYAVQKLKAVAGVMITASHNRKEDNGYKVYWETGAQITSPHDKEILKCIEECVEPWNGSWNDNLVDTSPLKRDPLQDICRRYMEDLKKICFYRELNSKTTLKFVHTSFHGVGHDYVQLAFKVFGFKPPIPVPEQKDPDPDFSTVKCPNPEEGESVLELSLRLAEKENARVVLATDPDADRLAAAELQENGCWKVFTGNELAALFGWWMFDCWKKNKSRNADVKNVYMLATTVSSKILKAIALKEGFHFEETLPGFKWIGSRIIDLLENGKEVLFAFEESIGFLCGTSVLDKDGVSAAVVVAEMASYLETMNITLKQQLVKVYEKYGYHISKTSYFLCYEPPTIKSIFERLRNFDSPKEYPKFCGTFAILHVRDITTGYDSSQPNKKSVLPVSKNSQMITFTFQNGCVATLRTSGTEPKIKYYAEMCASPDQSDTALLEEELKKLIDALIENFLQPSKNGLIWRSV
# T5: G antigen 2A (human, UniProt Q6NT46 1-116)
# T5 construct: on protein array; also called GAGE2A
# T5 sequence: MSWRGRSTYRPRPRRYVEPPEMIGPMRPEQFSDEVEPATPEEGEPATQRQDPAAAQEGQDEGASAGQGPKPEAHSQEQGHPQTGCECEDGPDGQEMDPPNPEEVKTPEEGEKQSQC
# T6: influenza virus NS1A binding protein (human, UniProt Q9Y6Y0 1-642)
# T6 construct: on protein array; also called IVNS1ABP
# T6 sequence: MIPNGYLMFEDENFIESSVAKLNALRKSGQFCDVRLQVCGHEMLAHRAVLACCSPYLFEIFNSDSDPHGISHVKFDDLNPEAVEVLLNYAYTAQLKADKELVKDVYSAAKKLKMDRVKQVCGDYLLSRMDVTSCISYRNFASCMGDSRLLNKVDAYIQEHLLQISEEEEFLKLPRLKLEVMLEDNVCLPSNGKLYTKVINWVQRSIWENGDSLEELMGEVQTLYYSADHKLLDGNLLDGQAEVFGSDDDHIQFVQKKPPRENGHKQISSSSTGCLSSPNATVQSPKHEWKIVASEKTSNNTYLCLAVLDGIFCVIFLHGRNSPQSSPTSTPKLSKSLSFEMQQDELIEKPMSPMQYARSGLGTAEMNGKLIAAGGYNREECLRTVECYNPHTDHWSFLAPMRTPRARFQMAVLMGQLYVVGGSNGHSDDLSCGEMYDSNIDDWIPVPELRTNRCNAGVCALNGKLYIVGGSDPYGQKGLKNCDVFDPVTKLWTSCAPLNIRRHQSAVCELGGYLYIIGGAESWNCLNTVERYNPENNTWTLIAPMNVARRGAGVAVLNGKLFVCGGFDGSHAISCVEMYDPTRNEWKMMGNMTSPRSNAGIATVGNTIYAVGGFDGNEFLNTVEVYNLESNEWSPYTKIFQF
# T7: Dexd-box helicase 52 (human, UniProt Q9Y2R4 1-599)
# T7 construct: on protein array; also called DDX52
# T7 sequence: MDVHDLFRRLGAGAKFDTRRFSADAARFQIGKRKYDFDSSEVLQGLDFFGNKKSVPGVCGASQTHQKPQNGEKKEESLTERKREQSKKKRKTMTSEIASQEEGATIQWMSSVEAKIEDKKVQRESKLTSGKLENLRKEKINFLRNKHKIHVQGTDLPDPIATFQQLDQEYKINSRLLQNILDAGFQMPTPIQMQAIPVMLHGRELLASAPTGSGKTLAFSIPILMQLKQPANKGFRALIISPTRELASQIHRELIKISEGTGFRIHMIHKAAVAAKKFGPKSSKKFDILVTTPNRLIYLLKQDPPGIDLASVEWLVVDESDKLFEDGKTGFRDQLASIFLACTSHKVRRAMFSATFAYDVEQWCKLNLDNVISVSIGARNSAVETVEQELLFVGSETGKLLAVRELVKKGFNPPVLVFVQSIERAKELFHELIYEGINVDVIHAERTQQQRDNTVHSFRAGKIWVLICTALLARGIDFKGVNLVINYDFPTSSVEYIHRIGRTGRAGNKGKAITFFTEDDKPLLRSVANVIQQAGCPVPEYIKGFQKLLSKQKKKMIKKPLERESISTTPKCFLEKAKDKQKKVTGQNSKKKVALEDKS
# T8: acyl-CoA binding domain containing 6 (human, UniProt Q9BR61 1-282)
# T8 construct: on protein array; also called ACBD6
# T8 sequence: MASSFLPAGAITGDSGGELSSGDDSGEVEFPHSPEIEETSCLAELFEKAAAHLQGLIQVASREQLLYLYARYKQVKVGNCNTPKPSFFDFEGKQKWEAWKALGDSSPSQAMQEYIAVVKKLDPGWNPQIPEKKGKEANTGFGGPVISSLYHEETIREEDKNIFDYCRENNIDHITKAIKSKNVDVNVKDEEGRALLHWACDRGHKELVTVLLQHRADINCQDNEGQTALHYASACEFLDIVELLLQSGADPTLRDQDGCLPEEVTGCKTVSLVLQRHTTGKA
# B1: TTES1003 (antibody, V domains shown)
# VH: VVQLVESGGGLVQPGGSLRLSCSASGFTFSSYAMHWVRQAPGKGLEYVSAISSNGGSTYYADSVKGRFTISRDNSKNTLYLQMSSLRAEDTAVYYCVKSPVAANDAFDIWGQGTMVTVSS
# VL: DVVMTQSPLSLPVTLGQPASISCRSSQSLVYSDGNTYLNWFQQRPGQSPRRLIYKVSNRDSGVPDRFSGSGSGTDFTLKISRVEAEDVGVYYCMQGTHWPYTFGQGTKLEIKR
# notes: VH/VL tied via antigen in summary, not by name in this stretch
# B2: TUCE1005 (antibody, V domains shown)
# VH: QVQLQESGPGLVKPSETLSLTCTVSGGSISSYYWSWIRQPAGKGLEWIGRIYTSGSTNYNPSLKSRVTMSVDTSKNQFSLKMSSVTAADTAVYYCARGELLFDHWGQGTLVTVSS
# VL: not shown
# notes: as for B1
# B3: TTES1007 (antibody, V domains shown)
# VH: QITLKESGPTLVKPTQTLTLTCTFSGFSLTTTGVGVGWIRQPPGKALEWLALIYWDDDKRYSPSLKSRLIITKDTSKNQVVLTMTNMDPVDTATYYCAHRFGRGVSYYYYGMDVWGQGTTVTVSS
# VL: not shown
# notes: as for B1
# B4: TTES1004 (antibody, V domains shown)
# VH: EVQLVESGGGLVQPGGSLRLSCVASGFTFSSYSMNWVRQAPGKGLKWVSYISSSRSTIYNADSVKGRFTISRDNAKKSLYLQMNSLRAEDTAVYYCARVSVAAPTCLDYWGQGTLVTVSS
# VL: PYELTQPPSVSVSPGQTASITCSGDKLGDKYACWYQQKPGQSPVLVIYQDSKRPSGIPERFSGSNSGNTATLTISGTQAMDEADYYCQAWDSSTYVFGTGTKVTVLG
# notes: as for B1
# B5: TTES1002 (antibody, V domains shown)
# VH: QVQLQESGPGLVKPSETLSLICTVSGASVNSGTHFWSWIRQPPGKGLEWIGYVYYSGNTNYNPSLKSRVAISVDTSKNQFSLKLTSVTSADTAVYYCARDFDDGYDIRYWGQGTRVSVSS
# VL: QSALTQPASVSGSPGQSITISCTGSSNDIGRYKYVSWFQHHPGRAPKLIIYEVNNRPSGLSHRFSGSKSGNTASLTISGLQAEDEADYYCCSYTSSLTYVFGTGTAVTVL
# notes: as for B1
# B6: TTES1012 (antibody, V domains shown)
# VH: EVQLVESGGGLVQPGGSLRLSCAASGFTFSSYWMTWVRQAPGKGLEWVANIKQDGSEKYYVDSVKGRFTISRDNSKNSLYLQMNSLRAEDTAVYYCARAGYDLFGWFDPWGQGTLVTVSS
# VL: SYELTQPPSVSVSPGQTARITCSGDALPKQYAYWYQQKPGQAPVLVIYKDSERPSGIPERFSGSSSGTTVTLTISGVQAEDEADYYCQSADSSGTYVFGTGTKVTVLG
# notes: as for B1
# B7: TTHY1003 (antibody, V domains shown)
# VH: QVQLVQSGAEMKKPGTSVKVSCRTSGYIFTGSFMHWVRQAPAQGLEWMGWINPKTGATYYTEKFKGRVTLTRDTSINTAYMEMTSLRSDDTAVYYCARGFCDLPACYPVPQYNWFDPWGQGTLVTVSS
# VL: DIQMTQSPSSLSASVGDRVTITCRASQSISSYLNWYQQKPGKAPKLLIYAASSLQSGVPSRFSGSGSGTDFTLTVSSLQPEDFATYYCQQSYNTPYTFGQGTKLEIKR
# notes: as for B1
# B8: TTES1008 (antibody, V domains shown)
# VH: QVQLVESGGGVVQPGRSLRLSCAASGFIFSSYGMHWVRQAPGKGLEWVAVISYDGSNKYYADSVKGRFTISRDKSKNTLHLQMNSLRAEDTAVYYCAKDSGSNDDMDVWGKGTTVTVSS
# VL: QSVLTQPPSVSAAPGQKVTISCSGSSSNIGNNYVSWYQQLPGTAPKLLIYDNNKRPSGIPDRFSGSKSGTSATLGITGLQTGDEADYYCGTWDSSLSAGVFGTGTKVTVLG
# notes: as for B1
# B9: TTHY1002 (antibody, V domains shown)
# VH: EVQVVESGGGLGQPGGSLRLSCAASGFTFSSYSMNWVRQAPGKGLEWVSYISSSSSTKYYADSVKGRFTISRDNAKKSLYLQMNSLRDEDTAVYYCASPVRPWGQGTLVTVSS
# VL: EIVMTQSPATLSVSPGERATLSCRASQSVSSNLAWYQQKPGQAPRLLIYGASTRATGIPARFSGSGSGTEFTLTISSLQSEDFAIYYCQQYNSWPAFGGGTKVEIK
# notes: as for B1
# B10: TTES1006 (antibody, V domains shown)
# VH: EVQLVESGGGLVQPGGSLRLSCAASGFTFSKFWMHWVRQAPGKGLVWLSRINTDGTVTTYADSVKGRFTISRDNAKSTLYLQMNSLRVEDTAVYYCAGGGSQVDFWGQGTLVTVSS
# VL: PYELTQPPSVSVSPGQTASIACSGDNLGNKYAWWYRQKPGQSPVLVMYKDNKRPSGIPERFSGSNSGNTATLTISGTQAMDEADYYCQTWDSSTVIFGGGTKLTVQ
# notes: as for B1
# What was measured:
# programmed cell death 1 = molecular target: T9, programmed cell death 1 (human, UniProt Q15116 25-288); assay: protein array, with experimental replicate
# T9 construct: on protein array; also called PDCD1
# T9 sequence (Q15116 25-288 limits assumed): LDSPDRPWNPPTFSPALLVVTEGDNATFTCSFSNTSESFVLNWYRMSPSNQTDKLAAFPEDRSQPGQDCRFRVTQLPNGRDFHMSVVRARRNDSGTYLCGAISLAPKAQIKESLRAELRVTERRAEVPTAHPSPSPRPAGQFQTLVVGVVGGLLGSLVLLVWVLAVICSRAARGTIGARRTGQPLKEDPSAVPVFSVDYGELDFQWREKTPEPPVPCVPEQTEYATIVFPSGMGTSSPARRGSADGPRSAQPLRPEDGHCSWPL
# [1] = molecular target: T1, UTP6 small subunit processome component; assay: protein array
# phosducin like = molecular target: T2, phosducin like; assay: protein array
# [2] = molecular target: T3, glyoxylate and hydroxypyruvate reductase; assay: protein array
# [3] = molecular target: T4, phosphoglucomutase 2 like 1; assay: protein array
# G antigen 2A = molecular target: T5, G antigen 2A; assay: protein array
# [4] = molecular target: T10, BAF chromatin remodeling complex subunit BCL7C, transcript variant 2 (human, UniProt Q8WUZ0 1-217); assay: protein array
# T10 construct: on protein array
# [5] = molecular target: T6, influenza virus NS1A binding protein; assay: protein array
# Dexd-box helicase 52 = molecular target: T7, Dexd-box helicase 52; assay: protein array
# [6] = molecular target: T11, G protein-coupled receptor 4 (human, UniProt P46093 1-362); assay: protein array
# T11 construct: on protein array; also called GPR4
# T11 sequence (P46093 whole entry): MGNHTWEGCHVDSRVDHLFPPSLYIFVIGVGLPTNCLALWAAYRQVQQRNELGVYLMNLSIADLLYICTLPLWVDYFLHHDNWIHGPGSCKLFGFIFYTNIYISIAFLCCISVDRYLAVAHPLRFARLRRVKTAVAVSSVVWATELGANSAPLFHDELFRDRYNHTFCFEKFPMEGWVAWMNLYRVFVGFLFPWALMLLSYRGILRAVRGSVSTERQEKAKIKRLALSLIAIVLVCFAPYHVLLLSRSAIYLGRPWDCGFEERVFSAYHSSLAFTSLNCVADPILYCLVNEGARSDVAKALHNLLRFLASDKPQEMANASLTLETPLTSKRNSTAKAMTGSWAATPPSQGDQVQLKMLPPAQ
# [7] = molecular target: T12, proliferating cell nuclear antigen, transcript variant 1 (human, UniProt P12004 1-261); assay: protein array
# T12 construct: on protein array; also called PCNA
# T12 sequence (P12004 whole entry, change not shown): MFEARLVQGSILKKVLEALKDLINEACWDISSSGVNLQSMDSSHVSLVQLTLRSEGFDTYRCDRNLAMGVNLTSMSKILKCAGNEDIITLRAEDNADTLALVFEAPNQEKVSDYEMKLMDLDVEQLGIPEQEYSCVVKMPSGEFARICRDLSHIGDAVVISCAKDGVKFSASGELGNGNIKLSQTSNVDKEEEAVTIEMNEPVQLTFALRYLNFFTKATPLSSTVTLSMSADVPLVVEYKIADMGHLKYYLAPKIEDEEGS
# [8] = molecular target: T8, acyl-CoA binding domain containing 6; assay: protein array
binder,measurement,setting,value
B1,binding result,programmed cell death 1,binds
B2,binding result,[1],binds
B3,binding result,phosducin like,binds
B4,binding result,[2],binds
B5,binding result,[3],binds
B6,binding result,G antigen 2A,binds
B7,binding result,[4],binds
same,binding result,[5],binds
B8,binding result,Dexd-box helicase 52,binds
same,binding result,[6],binds
B9,binding result,[7],binds
B10,binding result,[8],binds
